Test results as given in patent US20260235601, “APTAMER BASED DETECTION OF SARS-COV-2 INFECTION” (COUNCIL OF SCIENTIFIC & INDUSTRIAL RESEARCH, published 2026).
Positions count from the first letter of the chain named.

Molecular target: SARS-CoV-2 spike receptor-binding domain (RBD) (SARS-CoV-2 (Wuhan strain), UniProt P0DTC2 P0DTC2:319-541)
Assay: ELONA
Conditions: tags: N-terminal His tag, pET-15b, E. coli BL21 Star (DE3), about 26 kDa

B1: AptRBD2 (ssDNA)
DNA: ATGCGGATCCCGCGCATATTAAAGGGGAGGCTCCCTATGGGTTTGTCCGATTAGCTGCGCGAAGCTTGCGC
binding result: binds

B2: AptRBD3 (ssDNA)
DNA: ATGCGGATCCCGCGCATTTAAAGCGGTTCGATGCGTATGGGTTTGTCCGATTCGGTGCGCGAAGCTTGCGC
binding signal: 0.75 absorbance

B3: AptRBD6 (ssDNA)
DNA: B2 DNA with G26C, C53A, G55C
binding signal: 0.7 absorbance

ATTTAAAGCGGTTCGATGCGTATGGTTTGTCCGATTCGGT (ssDNA) [AptRBD3.1]
activity: 4 ng/mL

B4: AptRBD9 (ssDNA)
DNA: ATGCGGATCCCGCGCCCGACGTCGCATGCTCCCGGCCGCCATGGCGGCCGCGGGAATTCGATTAGCGCGAAGCTTGCGC
binding result: binds

ATTTAAAGCGGTTCGATGCGTATGGTTTGTCCGAT (ssDNA) [AptRBD3.2]
activity: 4 ng/mL

AGCGGTTCGATGCGTATGGTTTGTCCGAT (ssDNA) [AptRBD3.3]
activity: 4 ng/mL

B5: AptRBD8 (ssDNA)
DNA: ATGCGGATCCCGCGCATTTAAAGGGGGCGCTCCGTATGGGTTTGTCCGATTAGCTGCGCGAAGCTTGCGC
binding signal: 0.75 absorbance

ATTTAAAGGGGGCGCTCCGTATGGGTTTGTCCGATTAGCT (ssDNA) [AptRBD8.1]
activity: 8 ng/mL

ATTTAAAGCGCTTCGATGCGTATGGGTTTGTCCGAT (ssDNA) [AptRBD6.1]
activity: 4 ng/mL

B6: AptRBD4 (ssDNA)
DNA: ATGCGGATCCCGCGCATTTAAAGCGTCGATGCGTATGGGTTTGTCCGATTAGCTGCGCGAAGCTTGCGC
binding result: binds

B7: AptRBD5 (ssDNA)
DNA: ATGCGGATCCCGCGCATTTAAAGGGAGACCTATGGGTTTGTCCGATTAGCTGCGCGAAGCTTGCGC
binding result: binds
